Measurements: PMC12102759 (2025)

B1: PIP5K1C peptide 642-657 (Phosphatidylinositol 4-phosphate 5-kinase type-1 gamma), 16-mer library wild type / TLN1 PTB (TLN1 Phosphotyrosine-binding (PTB) domain, residues 309-401) (parent complex)
chain 1: TDERSWVYSPLHYSAQ
chain 2: GVSFFLVKEKMKGKNKLVPRLLGITKECVMRVDEKTKEVIQEWNLTNIKRWAASPKSFTLDFGDYQDGYYSVQTTEGEQIAQLIAGYIDIILK

Variants of: B1
Assay: proteomic peptide phage display deep mutational scan (ProP-PD DMS): M13 P8 16-mer library selected against immobilised GST-tagged bait for four days (rounds), NGS of the eluted pools per day and pseudo-replica; bait immobilised on MaxiSorp plates (10 µg), library pre-cleared on GST, 2 h binding at 4 °C, five washes; one round per day, days 1-4; value from days 2 and 3

Row | Variant | screen value
1 | chain 1 H12D | 0.00129 average fractional NGS count over selection days 2 and 3 (reads of this peptide / all reads for the bait, averaged over …
2 | chain 1 S14V | 0.0171 average fractional NGS count over selection days 2 and 3 (reads of this peptide / all reads for the bait, averaged over …
3 | chain 1 Y8S | 0.00106 average fractional NGS count over selection days 2 and 3 (reads of this peptide / all reads for the bait, averaged over …
4 | chain 1 T1E | 0.00477 average fractional NGS count over selection days 2 and 3 (reads of this peptide / all reads for the bait, averaged over …
5 | chain 1 E3D | 0.000475 average fractional NGS count over selection days 2 and 3 (reads of this peptide / all reads for the bait, averaged over …
6 | chain 1 V7I | 0.000515 average fractional NGS count over selection days 2 and 3 (reads of this peptide / all reads for the bait, averaged over …
7 | chain 1 S14H | 0.00391 average fractional NGS count over selection days 2 and 3 (reads of this peptide / all reads for the bait, averaged over …
8 | chain 1 P10H | 0.00282 average fractional NGS count over selection days 2 and 3 (reads of this peptide / all reads for the bait, averaged over …
9 | chain 1 Y8E | 0.002 average fractional NGS count over selection days 2 and 3 (reads of this peptide / all reads for the bait, averaged over …
10 | chain 1 Y8A | 0.00167 average fractional NGS count over selection days 2 and 3 (reads of this peptide / all reads for the bait, averaged over …
11 | chain 1 D2E | 0.00176 average fractional NGS count over selection days 2 and 3 (reads of this peptide / all reads for the bait, averaged over …
12 | chain 1 H12G | 0.00249 average fractional NGS count over selection days 2 and 3 (reads of this peptide / all reads for the bait, averaged over …
13 | chain 1 S5R | 0.00066 average fractional NGS count over selection days 2 and 3 (reads of this peptide / all reads for the bait, averaged over …
14 | chain 1 V7H | 0.000523 average fractional NGS count over selection days 2 and 3 (reads of this peptide / all reads for the bait, averaged over …
15 | chain 1 D2H | 0.0024 average fractional NGS count over selection days 2 and 3 (reads of this peptide / all reads for the bait, averaged over …
16 | chain 1 S14F | 0.00254 average fractional NGS count over selection days 2 and 3 (reads of this peptide / all reads for the bait, averaged over …
17 | chain 1 T1F | 0.0018 average fractional NGS count over selection days 2 and 3 (reads of this peptide / all reads for the bait, averaged over …
18 | chain 1 Y8I | 0.00147 average fractional NGS count over selection days 2 and 3 (reads of this peptide / all reads for the bait, averaged over …
19 | chain 1 L11Y | 0.000186 average fractional NGS count over selection days 2 and 3 (reads of this peptide / all reads for the bait, averaged over …
20 | chain 1 H12A | 0.00137 average fractional NGS count over selection days 2 and 3 (reads of this peptide / all reads for the bait, averaged over …
21 | chain 1 E3H | 0.00041 average fractional NGS count over selection days 2 and 3 (reads of this peptide / all reads for the bait, averaged over …
22 | chain 1 V7W | 0.00263 average fractional NGS count over selection days 2 and 3 (reads of this peptide / all reads for the bait, averaged over …
23 | chain 1 S14W | 0.00882 average fractional NGS count over selection days 2 and 3 (reads of this peptide / all reads for the bait, averaged over …
24 | chain 1 R4M | 0.00101 average fractional NGS count over selection days 2 and 3 (reads of this peptide / all reads for the bait, averaged over …
25 | chain 1 S14G | 0.000766 average fractional NGS count over selection days 2 and 3 (reads of this peptide / all reads for the bait, averaged over …

Row | Variant | screen value
26 | chain 1 S5P | 0.00403 average fractional NGS count over selection days 2 and 3 (reads of this peptide / all reads for the bait, averaged over …
27 | chain 1 H12P | 0.00102 average fractional NGS count over selection days 2 and 3 (reads of this peptide / all reads for the bait, averaged over …
28 | chain 1 D2F | 0.00154 average fractional NGS count over selection days 2 and 3 (reads of this peptide / all reads for the bait, averaged over …
29 | chain 1 S5N | 0.000275 average fractional NGS count over selection days 2 and 3 (reads of this peptide / all reads for the bait, averaged over …
30 | chain 1 Y13D | 0.0137 average fractional NGS count over selection days 2 and 3 (reads of this peptide / all reads for the bait, averaged over …
31 | chain 1 Y8H | 0.0119 average fractional NGS count over selection days 2 and 3 (reads of this peptide / all reads for the bait, averaged over …
32 | chain 1 H12W | 0.000302 average fractional NGS count over selection days 2 and 3 (reads of this peptide / all reads for the bait, averaged over …
33 | chain 1 H12T | 0.00303 average fractional NGS count over selection days 2 and 3 (reads of this peptide / all reads for the bait, averaged over …
34 | chain 1 R4Y | 0.00355 average fractional NGS count over selection days 2 and 3 (reads of this peptide / all reads for the bait, averaged over …
35 | chain 1 H12K | 0.000275 average fractional NGS count over selection days 2 and 3 (reads of this peptide / all reads for the bait, averaged over …
36 | chain 1 R4G | 0.00304 average fractional NGS count over selection days 2 and 3 (reads of this peptide / all reads for the bait, averaged over …
37 | chain 1 H12Q | 0.0044 average fractional NGS count over selection days 2 and 3 (reads of this peptide / all reads for the bait, averaged over …
38 | chain 1 Y13F | 0.0029 average fractional NGS count over selection days 2 and 3 (reads of this peptide / all reads for the bait, averaged over …
39 | chain 1 S14T | 0.012 average fractional NGS count over selection days 2 and 3 (reads of this peptide / all reads for the bait, averaged over …
40 | chain 1 V7E | 0.00195 average fractional NGS count over selection days 2 and 3 (reads of this peptide / all reads for the bait, averaged over …
41 | chain 1 L11E | 0.000382 average fractional NGS count over selection days 2 and 3 (reads of this peptide / all reads for the bait, averaged over …
42 | chain 1 Y13M | 0.00125 average fractional NGS count over selection days 2 and 3 (reads of this peptide / all reads for the bait, averaged over …
43 | chain 1 A15I | 0.000328 average fractional NGS count over selection days 2 and 3 (reads of this peptide / all reads for the bait, averaged over …
44 | chain 1 V7G | 0.000623 average fractional NGS count over selection days 2 and 3 (reads of this peptide / all reads for the bait, averaged over …
45 | chain 1 T1W | 0.00109 average fractional NGS count over selection days 2 and 3 (reads of this peptide / all reads for the bait, averaged over …
46 | chain 1 Y13A | 0.000758 average fractional NGS count over selection days 2 and 3 (reads of this peptide / all reads for the bait, averaged over …
47 | chain 1 D2M | 0.000501 average fractional NGS count over selection days 2 and 3 (reads of this peptide / all reads for the bait, averaged over …
48 | chain 1 W6V | 0.00015 average fractional NGS count over selection days 2 and 3 (reads of this peptide / all reads for the bait, averaged over …
49 | chain 1 S5I | 0.00725 average fractional NGS count over selection days 2 and 3 (reads of this peptide / all reads for the bait, averaged over …
50 | chain 1 D2L | 0.0016 average fractional NGS count over selection days 2 and 3 (reads of this peptide / all reads for the bait, averaged over …

Row | Variant | screen value
51 | chain 1 Y13G | 0.000568 average fractional NGS count over selection days 2 and 3 (reads of this peptide / all reads for the bait, averaged over …
52 | chain 1 H12N | 0.00503 average fractional NGS count over selection days 2 and 3 (reads of this peptide / all reads for the bait, averaged over …
53 | chain 1 S5D | 0.00879 average fractional NGS count over selection days 2 and 3 (reads of this peptide / all reads for the bait, averaged over …
54 | chain 1 P10M | 0.00123 average fractional NGS count over selection days 2 and 3 (reads of this peptide / all reads for the bait, averaged over …
55 | chain 1 W6N | 0.00011 average fractional NGS count over selection days 2 and 3 (reads of this peptide / all reads for the bait, averaged over …
56 | chain 1 S9P | 0.000206 average fractional NGS count over selection days 2 and 3 (reads of this peptide / all reads for the bait, averaged over …
57 | chain 1 L11I | 0.00188 average fractional NGS count over selection days 2 and 3 (reads of this peptide / all reads for the bait, averaged over …
58 | chain 1 Y13E | 0.000568 average fractional NGS count over selection days 2 and 3 (reads of this peptide / all reads for the bait, averaged over …
59 | chain 1 S5K | 0.00079 average fractional NGS count over selection days 2 and 3 (reads of this peptide / all reads for the bait, averaged over …
60 | chain 1 A15S | 0.001 average fractional NGS count over selection days 2 and 3 (reads of this peptide / all reads for the bait, averaged over …
61 | chain 1 D2R | 0.00137 average fractional NGS count over selection days 2 and 3 (reads of this peptide / all reads for the bait, averaged over …
62 | chain 1 E3W | 0.0075 average fractional NGS count over selection days 2 and 3 (reads of this peptide / all reads for the bait, averaged over …
63 | chain 1 E3V | 0.000642 average fractional NGS count over selection days 2 and 3 (reads of this peptide / all reads for the bait, averaged over …
64 | chain 1 S5L | 0.00637 average fractional NGS count over selection days 2 and 3 (reads of this peptide / all reads for the bait, averaged over …
65 | chain 1 D2A | 0.0142 average fractional NGS count over selection days 2 and 3 (reads of this peptide / all reads for the bait, averaged over …
66 | chain 1 R4D | 0.0132 average fractional NGS count over selection days 2 and 3 (reads of this peptide / all reads for the bait, averaged over …
67 | chain 1 V7A | 0.0345 average fractional NGS count over selection days 2 and 3 (reads of this peptide / all reads for the bait, averaged over …
68 | chain 1 L11R | 0.00065 average fractional NGS count over selection days 2 and 3 (reads of this peptide / all reads for the bait, averaged over …
69 | chain 1 S14M | 0.00342 average fractional NGS count over selection days 2 and 3 (reads of this peptide / all reads for the bait, averaged over …
70 | chain 1 T1I | 0.000851 average fractional NGS count over selection days 2 and 3 (reads of this peptide / all reads for the bait, averaged over …
71 | chain 1 T1D | 0.00201 average fractional NGS count over selection days 2 and 3 (reads of this peptide / all reads for the bait, averaged over …
72 | chain 1 S5H | 0.00161 average fractional NGS count over selection days 2 and 3 (reads of this peptide / all reads for the bait, averaged over …
73 | chain 1 S14E | 0.00034 average fractional NGS count over selection days 2 and 3 (reads of this peptide / all reads for the bait, averaged over …
74 | chain 1 S5G | 0.000211 average fractional NGS count over selection days 2 and 3 (reads of this peptide / all reads for the bait, averaged over …
75 | chain 1 V7F | 0.00058 average fractional NGS count over selection days 2 and 3 (reads of this peptide / all reads for the bait, averaged over …
